Patent publication US20080193971

Assays:
[1] = target: T1, GNA1870 surface-exposed lipoprotein, Q9JXV4
T1 chain: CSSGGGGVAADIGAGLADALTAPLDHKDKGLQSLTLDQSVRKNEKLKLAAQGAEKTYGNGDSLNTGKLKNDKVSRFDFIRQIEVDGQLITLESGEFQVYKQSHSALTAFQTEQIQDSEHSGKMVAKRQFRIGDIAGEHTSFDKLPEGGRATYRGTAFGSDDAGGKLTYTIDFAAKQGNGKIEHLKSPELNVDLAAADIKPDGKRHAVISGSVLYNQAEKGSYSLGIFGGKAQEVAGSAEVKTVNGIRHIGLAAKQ

[2] = target: T2, meningococcal protein 287 (purified)
T2 chain: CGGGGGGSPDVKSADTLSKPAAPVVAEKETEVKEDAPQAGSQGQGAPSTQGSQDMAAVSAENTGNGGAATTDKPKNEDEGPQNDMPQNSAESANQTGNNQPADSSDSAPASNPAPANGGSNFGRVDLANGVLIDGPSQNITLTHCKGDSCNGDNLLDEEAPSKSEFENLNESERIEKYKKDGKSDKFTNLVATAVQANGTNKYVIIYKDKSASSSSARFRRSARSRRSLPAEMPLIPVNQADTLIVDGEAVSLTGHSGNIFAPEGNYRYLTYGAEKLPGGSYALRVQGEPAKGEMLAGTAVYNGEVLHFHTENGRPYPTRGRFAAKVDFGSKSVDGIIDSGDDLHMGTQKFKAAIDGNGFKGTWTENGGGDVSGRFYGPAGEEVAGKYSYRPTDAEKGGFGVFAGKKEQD

[3] = target: T3, recombinant App (Adhesion and penetration protein)
T3 chain: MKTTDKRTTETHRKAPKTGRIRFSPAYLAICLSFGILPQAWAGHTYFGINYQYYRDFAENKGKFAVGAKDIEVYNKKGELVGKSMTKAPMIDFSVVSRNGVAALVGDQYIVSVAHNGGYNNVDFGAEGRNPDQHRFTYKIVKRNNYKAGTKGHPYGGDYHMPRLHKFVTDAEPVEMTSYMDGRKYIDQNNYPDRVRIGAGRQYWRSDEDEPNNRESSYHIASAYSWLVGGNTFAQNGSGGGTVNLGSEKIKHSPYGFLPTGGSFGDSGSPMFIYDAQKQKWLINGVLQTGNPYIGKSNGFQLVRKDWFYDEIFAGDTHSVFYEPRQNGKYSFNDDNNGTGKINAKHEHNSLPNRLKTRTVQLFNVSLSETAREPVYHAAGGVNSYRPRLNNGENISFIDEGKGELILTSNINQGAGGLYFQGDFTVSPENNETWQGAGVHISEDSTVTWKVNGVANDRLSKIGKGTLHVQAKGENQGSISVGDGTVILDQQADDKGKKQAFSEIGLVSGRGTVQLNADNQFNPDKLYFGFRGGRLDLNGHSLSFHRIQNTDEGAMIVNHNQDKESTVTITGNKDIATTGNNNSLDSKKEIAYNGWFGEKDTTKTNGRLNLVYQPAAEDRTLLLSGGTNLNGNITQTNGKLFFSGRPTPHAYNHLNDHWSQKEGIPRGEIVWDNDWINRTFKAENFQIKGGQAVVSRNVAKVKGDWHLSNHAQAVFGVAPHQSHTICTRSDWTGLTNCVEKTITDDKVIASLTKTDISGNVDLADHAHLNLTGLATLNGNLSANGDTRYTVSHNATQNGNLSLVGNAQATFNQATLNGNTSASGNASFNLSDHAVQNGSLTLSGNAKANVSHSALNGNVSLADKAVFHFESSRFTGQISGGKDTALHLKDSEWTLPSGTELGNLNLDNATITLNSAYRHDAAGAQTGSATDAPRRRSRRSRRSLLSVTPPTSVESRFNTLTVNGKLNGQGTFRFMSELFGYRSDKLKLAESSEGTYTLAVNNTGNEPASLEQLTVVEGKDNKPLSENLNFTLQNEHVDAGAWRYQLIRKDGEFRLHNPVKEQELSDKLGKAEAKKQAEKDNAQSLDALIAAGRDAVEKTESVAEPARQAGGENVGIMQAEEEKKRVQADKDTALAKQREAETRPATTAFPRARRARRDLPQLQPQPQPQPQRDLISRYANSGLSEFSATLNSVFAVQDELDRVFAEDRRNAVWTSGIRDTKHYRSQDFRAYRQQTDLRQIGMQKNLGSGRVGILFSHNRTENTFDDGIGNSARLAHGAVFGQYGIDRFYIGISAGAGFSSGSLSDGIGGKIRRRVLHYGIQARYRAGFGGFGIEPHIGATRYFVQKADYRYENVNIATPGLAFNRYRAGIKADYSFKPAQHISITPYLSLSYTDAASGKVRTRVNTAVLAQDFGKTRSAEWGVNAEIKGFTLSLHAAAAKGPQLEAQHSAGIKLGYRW

B1: human lactoferrin (protein)
chain: GRRRSVQWCAVSQPEATKCFQWQRNMRKVRGPPVSCIKRDSPIQCIQAIAENRADAVTLDGGFIYEAGLAPYKLRPVAAEVYGTERQPRTHYYAVAVVKKGGSFQLNELQGLKSCHTGLRRTAGWNVPIGTLRPFLNWTGPPEPIEAAVARFFSASCVPGADKGQFPNLCRLCAGTGENKCAFSSQEPYFSYSGAFKCLRDGAGDVAFIRESTVFEDLSDEAERDEYELLCPDNTRKPVDKFKDCHLARVPSHAVVARSVNGKEDAIWNLLRQAQEKFGKDKSPKFQLFGSPSGQKDLLFKDSAIGFSRVPPRIDSGLYLGSGYFTAIQNLRKSEEEVAARRARVVWCAVGEQELRKCNQWSGLSEGSVTCSSASTTEDCIALVLKGEADAMSLDGGYVYTAGKCGLVPVLAENYKSQQSSDPDPNCVDRPVEGYLAVAVVRRSDTSLTWNSVKGKKSCHTAVDRTAGWNIPMGLLFNQTGSCKFDEYFSQSCAPGSDPRSNLCALCIGDEQGENKCVPNSNERYYGYTGAFRCLAENAGDVAFVKDVTVLQNTDGNNNEAWAKDLKLADFALLCLDGKRKPVTEARSCHLAMAPNHAVVSRMDKVERLKQVLLHQQAKFGRNGSDCPDKFCLFQSETKNLLFNDNTECLARLHGKTTYEKYLGPQYVAGITNLKKCSTSPLLEACEFLRK
- proteolytic degradation on meningococci (western blot with anti-GNA1870) [1]: lactoferrin treatment under conditions which degrade App had no effect on ONA1870
- proteolytic cleavage (SDS-PAGE and western blot with rabbit anti-287) [2]: Lane 3 shows definite cleavage of protein 287
- share of N-terminus RSLPAEMPL in the ~19 kDa cleavage fragment [2]: RSLPAEMPL (˜30%)
- share of N-terminus SLPAEMPLI in the ~19 kDa cleavage fragment [2]: SLPAEMPLI (˜70%)
- proteolytic cleavage (western blot with anti-App) [3]: the App antigen was cleaved in different fragments
